Source: the supplement of paper PMC9876800

Tested on: peptide library, one residue held at a place counted from the S/T acceptor
Assay: relative phosphorylation of the sub-library (ratio to the mean residue at this position); human; higher = residue favoured
Procedure, shortened: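 In 384-well plates, purified recombinant kinases (human or orthologue constructs) were incubated for 90 min under kinase-specific conditions with 50 μM biotinylated degenerate peptide sub-libraries and 50 μM ATP spiked with γ-32P-ATP. Each sub-library fixed a single residue at one position around a central Ser/Thr. Relative sub-library phosphorylation, measured by phosphorimaging and densitometry of streptavidin membrane spots, is given as a ratio to the mean residue at that position.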

SLK, construct: Full length, sequence (Q9H2G2 whole entry, looked up): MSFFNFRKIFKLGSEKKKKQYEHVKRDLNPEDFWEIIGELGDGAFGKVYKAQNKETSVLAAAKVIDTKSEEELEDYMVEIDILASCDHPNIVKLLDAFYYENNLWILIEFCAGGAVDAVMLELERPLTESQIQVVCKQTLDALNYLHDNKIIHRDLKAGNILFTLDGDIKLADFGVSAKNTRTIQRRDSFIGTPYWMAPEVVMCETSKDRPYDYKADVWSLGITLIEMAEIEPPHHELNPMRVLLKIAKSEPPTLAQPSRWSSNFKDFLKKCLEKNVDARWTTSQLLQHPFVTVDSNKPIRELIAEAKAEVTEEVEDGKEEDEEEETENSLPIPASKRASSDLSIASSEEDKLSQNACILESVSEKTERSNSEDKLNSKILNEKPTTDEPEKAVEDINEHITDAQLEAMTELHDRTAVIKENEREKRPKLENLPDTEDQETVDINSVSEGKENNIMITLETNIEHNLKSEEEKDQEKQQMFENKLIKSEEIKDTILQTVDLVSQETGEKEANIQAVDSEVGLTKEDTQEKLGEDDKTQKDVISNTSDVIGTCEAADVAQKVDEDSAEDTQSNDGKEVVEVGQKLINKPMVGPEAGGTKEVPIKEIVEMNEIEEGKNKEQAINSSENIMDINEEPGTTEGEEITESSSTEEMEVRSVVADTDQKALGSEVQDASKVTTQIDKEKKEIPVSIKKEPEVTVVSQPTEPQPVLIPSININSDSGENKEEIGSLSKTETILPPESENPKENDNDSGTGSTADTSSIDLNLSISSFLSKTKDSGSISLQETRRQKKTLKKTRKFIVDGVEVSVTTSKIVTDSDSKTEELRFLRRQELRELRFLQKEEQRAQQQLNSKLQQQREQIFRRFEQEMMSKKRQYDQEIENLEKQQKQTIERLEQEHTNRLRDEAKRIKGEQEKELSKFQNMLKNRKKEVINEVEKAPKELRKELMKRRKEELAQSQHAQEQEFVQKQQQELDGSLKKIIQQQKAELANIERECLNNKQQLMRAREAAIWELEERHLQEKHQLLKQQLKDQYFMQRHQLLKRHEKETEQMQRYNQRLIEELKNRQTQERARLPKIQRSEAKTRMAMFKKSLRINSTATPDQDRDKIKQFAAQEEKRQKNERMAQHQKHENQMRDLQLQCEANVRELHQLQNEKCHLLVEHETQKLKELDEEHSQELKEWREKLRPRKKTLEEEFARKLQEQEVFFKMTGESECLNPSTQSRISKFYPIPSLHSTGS
CLK3, construct: Full length, sequence (P49761 whole entry, looked up): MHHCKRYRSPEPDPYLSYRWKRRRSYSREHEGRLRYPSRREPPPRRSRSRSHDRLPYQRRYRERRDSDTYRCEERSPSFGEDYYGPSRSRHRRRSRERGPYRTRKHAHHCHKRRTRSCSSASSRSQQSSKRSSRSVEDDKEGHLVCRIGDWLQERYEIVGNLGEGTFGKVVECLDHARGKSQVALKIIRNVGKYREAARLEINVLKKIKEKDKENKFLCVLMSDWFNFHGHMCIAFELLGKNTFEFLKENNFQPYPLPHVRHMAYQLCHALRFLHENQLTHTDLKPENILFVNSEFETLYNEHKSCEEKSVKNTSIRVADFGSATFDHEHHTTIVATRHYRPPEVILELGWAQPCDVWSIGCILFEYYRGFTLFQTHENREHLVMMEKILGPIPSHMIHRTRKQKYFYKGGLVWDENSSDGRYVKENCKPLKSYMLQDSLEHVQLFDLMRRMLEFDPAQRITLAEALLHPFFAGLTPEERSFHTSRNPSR
TTBK1, construct: Full length, sequence (Q5TCY1 whole entry, looked up): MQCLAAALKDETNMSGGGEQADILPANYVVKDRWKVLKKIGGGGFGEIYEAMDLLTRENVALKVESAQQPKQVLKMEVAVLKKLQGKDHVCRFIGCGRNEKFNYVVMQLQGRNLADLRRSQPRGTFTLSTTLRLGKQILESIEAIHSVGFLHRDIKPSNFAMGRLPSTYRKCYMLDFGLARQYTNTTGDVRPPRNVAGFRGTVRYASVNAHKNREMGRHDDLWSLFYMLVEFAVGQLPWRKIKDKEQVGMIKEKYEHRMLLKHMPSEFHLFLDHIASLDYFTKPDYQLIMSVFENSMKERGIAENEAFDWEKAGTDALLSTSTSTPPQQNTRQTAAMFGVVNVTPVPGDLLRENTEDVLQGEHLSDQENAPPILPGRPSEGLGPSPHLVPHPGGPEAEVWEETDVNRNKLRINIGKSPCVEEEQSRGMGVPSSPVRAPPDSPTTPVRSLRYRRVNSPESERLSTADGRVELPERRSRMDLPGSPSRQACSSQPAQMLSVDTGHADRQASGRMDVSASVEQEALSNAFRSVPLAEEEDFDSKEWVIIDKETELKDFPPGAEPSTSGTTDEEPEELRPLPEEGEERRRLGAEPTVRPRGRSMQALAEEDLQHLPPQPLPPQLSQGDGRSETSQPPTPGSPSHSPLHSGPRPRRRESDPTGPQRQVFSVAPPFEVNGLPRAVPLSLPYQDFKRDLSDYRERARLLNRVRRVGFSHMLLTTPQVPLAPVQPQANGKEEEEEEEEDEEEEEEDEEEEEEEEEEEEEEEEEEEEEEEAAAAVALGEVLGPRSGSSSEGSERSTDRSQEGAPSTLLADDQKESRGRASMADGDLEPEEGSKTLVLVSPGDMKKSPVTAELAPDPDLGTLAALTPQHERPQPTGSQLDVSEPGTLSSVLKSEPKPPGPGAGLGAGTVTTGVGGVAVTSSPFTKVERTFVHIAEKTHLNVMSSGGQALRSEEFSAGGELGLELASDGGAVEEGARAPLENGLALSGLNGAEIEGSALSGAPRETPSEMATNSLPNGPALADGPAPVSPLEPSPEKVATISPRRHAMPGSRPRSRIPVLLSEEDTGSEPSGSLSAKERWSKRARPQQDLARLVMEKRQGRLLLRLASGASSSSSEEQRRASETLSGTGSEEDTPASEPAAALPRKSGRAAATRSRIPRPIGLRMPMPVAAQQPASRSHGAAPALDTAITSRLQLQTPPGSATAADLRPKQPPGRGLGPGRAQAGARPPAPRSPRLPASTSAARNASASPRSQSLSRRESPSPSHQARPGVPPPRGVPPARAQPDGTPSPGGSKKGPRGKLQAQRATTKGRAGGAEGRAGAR

SLK, construct: Full length (from UniProt Q9H2G2)
relative phosphorylation
Conditions | at +1 | at +2 | at +3 | at +4 | at -1 | at -2 | at -3 | at -4 | at -5
A fixed | 0.368 | 0.647 | 0.652 | 0.778 | 0.576 | 0.458 | 0.681 | 1.05 | 1.07
D fixed | 0.242 | 0.669 | 0.58 | 1.14 | 0.484 | 0.531 | 0.8 | 1.09 | 1.57
E fixed | 0.198 | 0.358 | 0.515 | 0.774 | 0.33 | 0.306 | 0.686 | 1.08 | 1
F fixed | 1.23 | 0.482 | 0.699 | 0.768 | 0.781 | 2.5 | 0.948 | 0.894 | 0.915
G fixed | 0.428 | 0.917 | 1.01 | 1.04 | 0.478 | 0.424 | 0.641 | 1.2 | 1.06
H fixed | 0.835 | 1.38 | 1.13 | 1.15 | 1.16 | 0.848 | 1.14 | 1.04 | 1.2
I fixed | 1.39 | 0.349 | 0.454 | 0.648 | 0.287 | 0.263 | 0.314 | 0.6 | 0.552
K fixed | 1.24 | 2.1 | 2.23 | 1.47 | 3.28 | 1.41 | 2.4 | 1.06 | 1.48
L fixed | 2.29 | 0.478 | 0.632 | 0.8 | 0.881 | 0.357 | 0.386 | 0.706 | 0.617
M fixed | 2.25 | 0.614 | 0.61 | 0.801 | 0.904 | 0.568 | 0.565 | 0.747 | 0.691
N fixed | 0.877 | 1.22 | 1.27 | 1.04 | 1.59 | 0.737 | 1.11 | 0.85 | 1.21
P fixed | 0.399 | 1.22 | 1.89 | 1.47 | 0.756 | 0.613 | 1 | 1.68 | 0.872
Q fixed | 0.818 | 1.04 | 0.918 | 1.22 | 1.27 | 0.604 | 1.01 | 0.918 | 0.744
R fixed | 1.11 | 3.74 | 2.14 | 1.45 | 1.68 | 1.13 | 1.79 | 1.11 | 1.31
V fixed | 0.673 | 0.445 | 0.514 | 0.598 | 0.35 | 0.306 | 0.326 | 0.688 | 0.716
W fixed | 1.49 | 0.745 | 0.911 | 1.04 | 0.781 | 0.862 | 1.95 | 1.36 | 1.12
Y fixed | 1.16 | 0.599 | 0.844 | 0.81 | 1.41 | 5.07 | 1.26 | 0.95 | 0.872
pThr fixed | 0.61 | 1 | 0.916 | 0.839 | 0.431 | 0.525 | 0.878 | 1.28 | 1.27
pTyr fixed | 0.455 | 0.581 | 0.811 | 0.641 | 0.392 | 0.921 | 1.16 | 1.07 | 1.03

TTBK1, construct: Full length (from UniProt Q5TCY1)
relative phosphorylation
Conditions | at +1 | at +2 | at +3 | at +4 | at -1 | at -2 | at -3 | at -4 | at -5
A fixed | 0.474 | 1.63 | 0.964 | 0.817 | 0.663 | 0.79 | 0.94 | 0.821 | 0.856
D fixed | 0.168 | 0.192 | 0.85 | 0.83 | 0.452 | 1.46 | 1.23 | 1.03 | 0.844
E fixed | 0.626 | 0.168 | 1.35 | 0.735 | 0.391 | 1.14 | 0.832 | 0.75 | 0.582
F fixed | 2.09 | 1.42 | 1.49 | 1.32 | 1.99 | 1.06 | 1.43 | 1.33 | 1.78
G fixed | 0.183 | 0.441 | 0.998 | 0.874 | 0.355 | 0.662 | 0.918 | 0.815 | 0.877
H fixed | 0.657 | 1.1 | 0.867 | 0.931 | 0.834 | 0.749 | 0.903 | 0.951 | 0.747
I fixed | 2.66 | 1.23 | 1.54 | 0.714 | 1.67 | 1.02 | 1.56 | 1.24 | 1.19
K fixed | 0.517 | 1.04 | 0.514 | 1.1 | 1.28 | 0.64 | 0.66 | 0.957 | 1.08
L fixed | 1.76 | 0.965 | 1.15 | 0.965 | 1.7 | 2.09 | 1.24 | 1.07 | 0.95
M fixed | 1.5 | 1.31 | 1.29 | 0.855 | 1.08 | 1.23 | 1.04 | 0.933 | 0.79
N fixed | 0.221 | 0.394 | 0.472 | 0.8 | 0.562 | 0.773 | 0.666 | 0.683 | 0.626
P fixed | 0.0712 | 0.231 | 0.421 | 1.23 | 0.589 | 1.04 | 0.649 | 0.687 | 0.7
Q fixed | 0.749 | 0.493 | 0.595 | 0.928 | 0.675 | 0.849 | 0.801 | 0.674 | 0.773
R fixed | 0.789 | 1.42 | 0.641 | 1.41 | 1.23 | 0.934 | 0.888 | 1.06 | 1.22
V fixed | 1.84 | 1.18 | 1.35 | 0.728 | 1.4 | 1.04 | 1.02 | 1.22 | 1.17
W fixed | 1.38 | 2.24 | 1.19 | 1.75 | 1.11 | 0.808 | 1.16 | 1.54 | 1.35
Y fixed | 1.31 | 1.57 | 1.32 | 1.01 | 1.03 | 0.721 | 1.08 | 1.23 | 1.47
pThr fixed | 0.403 | 0.521 | 0.836 | 1.01 | 0.51 | 2.02 | 1.57 | 1.28 | 1.03
pTyr fixed | 1.48 | 12.4 | 1.22 | 0.697 | 0.613 | 2.31 | 2.58 | 1.76 | 1.35

CLK3, construct: Full length (from UniProt P49761)
relative phosphorylation
Conditions | at +1 | at +2 | at +3 | at +4 | at -1 | at -2 | at -3 | at -4 | at -5
A fixed | 0.914 | 1.22 | 0.84 | 1.18 | 0.969 | 1.52 | 0.79 | 0.812 | 1.06
D fixed | 0.555 | 1.69 | 0.683 | 1.62 | 0.872 | 1.26 | 1.43 | 1.4 | 1.87
E fixed | 1.27 | 1.91 | 0.622 | 1.34 | 0.915 | 1.8 | 1.19 | 1.38 | 1.04
F fixed | 0.282 | 0.536 | 0.348 | 0.694 | 0.306 | 0.342 | 0.339 | 0.516 | 0.773
G fixed | 0.984 | 0.987 | 0.917 | 0.938 | 1.03 | 1.35 | 0.853 | 1.1 | 0.928
H fixed | 0.735 | 0.971 | 1.07 | 0.869 | 0.799 | 0.732 | 0.607 | 0.885 | 0.899
I fixed | 0.382 | 0.381 | 0.47 | 0.681 | 0.203 | 0.33 | 0.282 | 0.417 | 0.523
K fixed | 2.02 | 1.6 | 3.25 | 2.08 | 2.62 | 1.33 | 2.38 | 1.38 | 1.53
L fixed | 0.478 | 0.506 | 0.438 | 0.748 | 0.376 | 0.307 | 0.31 | 0.492 | 0.599
M fixed | 0.659 | 0.574 | 0.424 | 0.724 | 0.405 | 0.39 | 0.359 | 0.613 | 0.492
N fixed | 1.06 | 1.03 | 1.1 | 0.885 | 1.55 | 0.853 | 0.779 | 0.961 | 0.846
P fixed | 4.92 | 1.69 | 1.81 | 0.963 | 2.15 | 1.9 | 1.76 | 1.87 | 0.949
Q fixed | 0.983 | 0.898 | 0.707 | 1.01 | 1.62 | 0.904 | 0.852 | 0.996 | 0.973
R fixed | 0.409 | 1.35 | 2.93 | 1.1 | 2.1 | 2.72 | 3.78 | 2.05 | 2.05
V fixed | 0.619 | 0.52 | 0.457 | 0.796 | 0.367 | 0.432 | 0.436 | 0.535 | 0.735
W fixed | 0.368 | 0.628 | 0.483 | 0.732 | 0.37 | 0.39 | 0.457 | 0.879 | 1.07
Y fixed | 0.368 | 0.517 | 0.439 | 0.649 | 0.348 | 0.435 | 0.403 | 0.704 | 0.674
pThr fixed | 0.887 | 2.44 | 0.951 | 2.16 | 0.555 | 0.817 | 1.05 | 1.27 | 1.12
pTyr fixed | 1.23 | 0.956 | 0.877 | 1.3 | 1.1 | 0.87 | 0.997 | 1.05 | 0.98

PKN2, construct: aa501-984 (from UniProt Q16513)
relative phosphorylation
Conditions | at +1 | at +2 | at +3 | at +4 | at -1 | at -2 | at -3 | at -4 | at -5
A fixed | 0.532 | 0.768 | 0.837 | 0.925 | 0.905 | 1.1 | 0.867 | 1.11 | 0.963
D fixed | 0.318 | 0.322 | 0.543 | 0.614 | 0.962 | 0.35 | 0.321 | 0.59 | 0.503
E fixed | 0.293 | 0.32 | 0.545 | 0.609 | 0.719 | 0.357 | 0.347 | 0.669 | 0.522
F fixed | 2.82 | 0.467 | 0.753 | 0.535 | 0.602 | 0.671 | 0.464 | 0.749 | 0.806
G fixed | 0.43 | 0.554 | 0.938 | 1.17 | 1.32 | 0.949 | 0.823 | 1.19 | 1.04
H fixed | 0.805 | 1.63 | 1.22 | 1.25 | 1.16 | 1.43 | 1.49 | 1.16 | 0.946
I fixed | 1.34 | 0.836 | 0.888 | 0.877 | 0.514 | 0.569 | 0.514 | 0.861 | 1.45
K fixed | 1.33 | 2.49 | 1.85 | 1.94 | 1.66 | 2.17 | 2.37 | 1.82 | 1.43
L fixed | 1.25 | 0.927 | 0.946 | 0.785 | 0.833 | 0.571 | 0.61 | 0.804 | 1.34
M fixed | 1.84 | 0.788 | 0.839 | 0.804 | 0.825 | 0.852 | 0.643 | 0.928 | 0.723
N fixed | 0.75 | 1.02 | 0.861 | 0.994 | 1.37 | 1.13 | 0.736 | 0.938 | 0.78
P fixed | 0.252 | 0.471 | 0.557 | 1.2 | 1.06 | 0.538 | 0.681 | 0.831 | 0.99
Q fixed | 0.82 | 0.758 | 0.998 | 0.998 | 1.04 | 1.11 | 0.898 | 1.09 | 0.89
R fixed | 1.44 | 3.42 | 2.22 | 1.7 | 1.71 | 2.83 | 4.31 | 1.59 | 1.84
V fixed | 0.927 | 0.8 | 0.875 | 0.787 | 0.74 | 0.752 | 0.512 | 0.985 | 1.23
W fixed | 0.855 | 0.536 | 0.979 | 0.987 | 0.775 | 0.801 | 0.661 | 0.871 | 0.723
Y fixed | 0.997 | 0.885 | 1.15 | 0.825 | 0.811 | 0.82 | 0.742 | 0.809 | 0.824
pThr fixed | 1.05 | 1.15 | 0.818 | 0.683 | 0.799 | 0.836 | 0.743 | 1.11 | 0.683
pTyr fixed | 0.572 | 0.884 | 0.864 | 0.666 | 0.856 | 0.711 | 0.977 | 0.741 | 0.863
